From article PMC11898703 come the findings set out here.

The target of this assay is FliW-T25 (Clostridioides difficile) (UniProt Q18CX4). Description: two-hybrid; bacterial two-hybrid (BACTH) in E. coli BTH101 read by β-galactosidase assay on cell lysates (10^10 CFU, bead beating in Z buffer, ONPG, ΔOD420 over 1 h).

For the substance TcdR-T18 (natural protein), the fold increase in β-galactosidase activity over the TcdR-T18 + T25 control stood at 2 fold.
